“And” between values parts separate entries of the source, which are not always exact repeats. Equal entries are not always repeated. Where two headings read alike, the source gives them in different places. Bridges are numbered along the chain shown (N, C = ends). Roman numbers before positions name the chains, in order. Where no end group is shown, it is not given here. [ ]: non-standard residue; d: D form. Phe(4-NH2) = Nc1ccc(C[C@H](N)C(=O)O)cc1
Experiments:
[1] = target: T1, human IGF-1 receptor (human, UniProt P08069 31-1367); assay: cell-based or functional assay
[2] = target: T1, human IGF-1 receptor; assay: cell-based or functional assay; remark: listed apart in the source
[3] = target: T1, human IGF-1 receptor; assay: competition with 125I-IGF-1, receptor membranes, SPA
[4] = target: T2, human insulin receptor (human, UniProt P06213 28-1382); assay: competition with 125I-insulin, receptor membranes, SPA
T2 construct: whole, on cells

[5] = target: T2, human insulin receptor; assay: cell-based or functional assay
[6] = target: T1, human IGF-1 receptor; assay: cell-based or functional assay; remark: listed apart in the source
[7] = target: T2, human insulin receptor; assay: competition with 125I-insulin, receptor membranes, SPA; remark: listed apart in the source
[8] = target: T2, human insulin receptor; assay: as above; remark: listed apart in the source
[9] = target: T2, human insulin receptor; assay: as above; remark: listed apart in the source

Row | Binder | % IGF-1 (in test) [3] [%] | % native IGF-1 activity (0.55 nM) [3] [%] | IC50 [3] | IC50 [4] | other results
1 | MIU-35: B^1(H5, H10, Y16, L17)25-C^1-A^1 (H8, N18, N21) (ligand) GPEHLCGAHLVDALYLVCGDRGFYGYGSSSRRAPQTGIVDECCHRSCDLRRLENYCN | – | – | – | – | % Insulin Activity (in vitro; assay not stated) [1]: 3.2%
2 | MIU-68: B0, B22-PEG10K di-PEGylated B^1(H5,Y16,L17, K22)25-C^1(K8)-A^1(N18,21) (ligand, disulfide 18-56, 42-47, 6-43) {PEG 10 kDa}-GPEHLCGAELVDALYLVCGDK(PEG 10 kDa)GFYGYGSSSRKAPQTGIVDECCFRSCDLRRLENYCN | – | – | – | – | % Insulin Activity (in vitro; assay not stated) [1]: < 0.1%
3 | MIU-67: B0, C8-PEG10K di-PEGylated B^1(H5,Y16,L17)25-C^1(K8)-A^1(N18,21) (ligand, disulfide 18-56, 42-47, 6-43) {PEG 10 kDa}-GPEHLCGAELVDALYLVCGDRGFYGYGSSSRK(PEG 10 kDa)APQTGIVDECCFRSCDLRRLENYCN | – | – | – | – | % Insulin Activity (in vitro; assay not stated) [1]: < 0.1%
4 | DP20 Lys C (two chain form of DP20) (ligand) chain 1: GPEHLCGAHLVDALYLVCGDRGFYSSSSRAPPPSLPSPSRLPGPSDTPILPQK chain 2: GIVDECCHRSCDLRRLENYCN | – | – | – | – | EC50, phosphorylation (FIG. 18C) [2]: 8.23 nM
5 | DP22: CTP-E5R-B chain-CTP(K)-A Chain (ligand) MGSSSSKAPPPSLPSPSRLPGPSDTPILPQEEEEERGPEHLCGAHLVDALYLVCGDRGFYSSSSRAPPPSLPSPSRLPGPSDTPILPQKGIVDECCHRSCDLRRLENYCN | – | – | – | – | EC50, phosphorylation (FIG. 18C) [2]: 83.1 nM
6 | IGF-1 A:In (1-17)-IGF-1 B (18-30) (ligand, disulfide I:6-I:11, I:20-II:19, I:7-II:7) chain 1: GIVDECCFRSCDLRRLEMYCA-NH2 chain 2: FVNQHLCGSHLVEALYLVCGDRGFYFNKPT-NH2 | 0.9 | 0.9 | 62.5 nM | 2.77 nM and 2.67 nM and 2.48 nM | –
7 | IGF-1 A:In B(1-5)-IGF-1 B(YL)(6-30) (ligand, not fully specified (bridges); cysteine pairing not given here; also: C-terminal amide, chain not given here) chain 1: GIVDECCFRSCDLRRLEMYCA chain 2: FVNQHLCGAELVDALYLVCGDRGFYFNKPT | 3.6 | 2 | 27.5 nM | – | –
8 | IGF-1 A:B(E10 Y16L17)-E31E32 B-COOH (ligand, disulfide I:6-I:11, I:20-II:18, I:7-II:6) chain 1: GIVDECCFRSCDLRRLEMYCA-NH2 chain 2: GPETLCGAELVDALYLVCGDRGFYFNKPTEE-OH | 3 | 3.1 | 17.5 nM | – | –
9 | IGF-1 A:B(E10Y16L17) (ligand, disulfide I:6-I:11, I:20-II:18, I:7-II:6; not fully specified (C-terminus)) chain 1: GIVDECCFRSCDLRRLEMYCA chain 2: GPETLCGAELVDALYLVCGDRGFYFNKPT | – | – | 7.85 nM and 12.2 nM | 0.66 nM and 0.51 nM | % Insulin, total phosphorylation [5]: 49.2%; % IGF, total phosphorylation [6]: 13%
10 | IGF-1 A:IGF-1 B(1-8)-In (9-17)-IGF-1 B(18-30) (ligand, disulfide I:6-I:11, I:20-II:18, I:7-II:6) chain 1: GIVDECCFRSCDLRRLEMYCA-NH2 chain 2: GPETLCGSHLVEALYLVCGDRGFYFNKPT-NH2 | 0.3 | 0.4 | 131 nM | 1.59 nM | % insulin (in test) [4]: 19.1%; % native insulin activity (0.6 nM) [4]: 37.7%
11 | DP22LysC (ligand) chain 1: APPPSLPSPSRLPGPSDTPILPQEEEEERGPEHLCGAHLVDALYLVCGDRGFYSSSSRAPPPSLPSPSRLPGPSDTPILPQK chain 2: GIVDECCHRSCDLRRLENYCN | – | – | – | – | EC50, phosphorylation (FIG. 18C) [2]: 14.8 nM
12 | IGF-2 AB(YL) (ligand, C-terminal amide) chain 1: not shown chain 2: AYRPSETLCGGELVDTLYLVCGDRGFYFSRPA | – | – | – | 6.81 nM | –
13 | IGF1(Y^B16L^B17)(p-NH2-F)^A19amide (ligand, disulfide I:6-I:11, I:20-II:18, I:7-II:6; not fully specified (C-terminus); also: amide in name, site not given here, also called IGF1 A:B(Y^B16L^B17)(p-NH2-F)^A19amide; IGF1 (Y^B16L^B17) A(p-NH2-F)^19) chain 1: GIVDECCFRSCDLRRLEM[Phe(4-NH2)]CA chain 2: GPETLCGAELVDALYLVCGDRGFYFNKPT | – | – | – | – | IC50 [7]: 1.08 nM
14 | MIU-57: B1-PEG20K B^1(H5,Y16,L17)25-C^1-A^1(N18,21) (ligand, disulfide 18-56, 42-47, 6-43) {PEG 20 kDa}-GPEHLCGAELVDALYLVCGDRGFYGYGSSSRRAPQTGIVDECCFRSCDLRRLENYCN | – | – | – | – | % Insulin Activity (in vitro; assay not stated) [1]: 1.2%
15 | IGF1(Y^B16L^B17)(AlaPro)^A-1,0 (ligand) chain 1: APGIVDECCFRSCDLRRLEMYCA chain 2: GPETLCGAELVDALYLVCGDRGFYFNKPT | – | – | – | – | IC50 [8]: 1.93 nM
16 | DP20: GE5K-B chain-CTP(K)-A Chain (ligand) GEEEEEKGPEHLCGAHLVDALYLVCGDRGFYSSSSRAPPPSLPSPSRLPGPSDTPILPQKGIVDECCHRSCDLRRLENYCN | – | – | – | – | EC50, phosphorylation (FIG. 18C) [2]: 316 nM
17 | IGF-1 A:B (H5D10Y16L17) DPI (ligand, disulfide I:6-I:11, I:20-II:18, I:7-II:6) chain 1: GIVDECCFRSCDLRRLEMYCA-NH2 chain 2: GPEHLCGADLVDALYLVCGDRGFY-NH2 | 11.2 | 11.8 | 4.66 nM | 0.16 nM | % IGF, total phosphorylation [6]: 7.1%; % insulin (in test) [4]: 479%
18 | IGF-1 A:B(D10Y16L17) DPI A-COOH (ligand, disulfide I:6-I:11, I:20-II:18, I:7-II:6) chain 1: GIVDECCFRSCDLRRLEMYCA-OH chain 2: GPETLCGADLVDALYLVCGDRGFY-NH2 | 7.7 | 8.1 | 6.79 nM | 0.2 nM and 0.42 nM and 0.26 nM | % Insulin, total phosphorylation [5]: 1580%; % IGF, total phosphorylation [6]: 112%
19 | IGF-1 A (H8 A9 N21):B(H5D10Y16L17 A22) DPI A-COOH (ligand) chain 1: GIVDECCHASCDLRRLEMYCN chain 2: GPEHLCGADLVDALYLVCGDAGFY | 2.3 | 2.4 | 22.8 nM | 0.12 nM | % IGF, total phosphorylation [6]: 7.7%
20 | IGF-1 A:B (E10Y16L17) DPI (ligand, disulfide I:6-I:11, I:20-II:18, I:7-II:6) chain 1: GIVDECCFRSCDLRRLEMYCA-NH2 chain 2: GPETLCGAELVDALYLVCGDRGFY-NH2 | 3.3 | 2.4 | 22.9 nM | – | –
21 | IGF-1 A (H8 A9 N21):B(H5D10Y16L17) DPI A-COOH (ligand, disulfide I:6-I:11, I:20-II:18, I:7-II:6) chain 1: GIVDECCHASCDLRRLEMYCN-OH chain 2: GPEHLCGADLVDALYLVCGDRGFY-NH2 | 12.9 | 13.6 | 4.03 nM | 0.05 nM and 0.09 nM | % IGF, total phosphorylation [6]: 181%
22 | IGF-1 A:B (H5D10Y16L17) (S=O)DPI (ligand, disulfide I:6-I:11, I:20-II:18, I:7-II:6; also: (S=O), residue not given here, the only Met stands at A18) chain 1: GIVDECCFRSCDLRRLEMYCA-NH2 chain 2: GPEHLCGADLVDALYLVCGDRGFY-NH2 | – | – | – | 0.25 nM | % insulin (in test) [4]: 316%
23 | MIU-58: B1-PEG20K-B1- Dimer (ligand, disulfide 18-56, 42-47, 6-43; also: dimer: two chains linked head to head via 20 kDa PEG) {PEG 20 kDa}-GPEHLCGAELVDALYLVCGDRGFYGYGSSSRRAPQTGIVDECCFRSCDLRRLENYCN | – | – | – | – | % Insulin Activity (in vitro; assay not stated) [1]: 2.6%
24 | IGF1(Y^B16L^B17) (ligand, Two chain heteroduplex; may be the same molecule as m22; also called IGF1 (Y^B16L^B17) analog; IGF1 A:B(Y^B16L^B17)) chain 1: GIVDECCFRSCDLRRLEMYCA chain 2: GPETLCGAELVDALYLVCGDRGFYFNKPT | – | – | – | – | IC50 [9]: 0.51 nM
25 | IGF-1 A:B (ligand, disulfide I:6-I:11, I:20-II:18, I:7-II:6, also called IGF-1 A and B chain heteroduplex) chain 1: GIVDECCFRSCDLRRLEMYCA-NH2 chain 2: GPETLCGAELVDALQFVCGDRGFYFNKPT-NH2 | – | – | – | 10.4 nM | % insulin (in test) [4]: 5.8%; % native insulin activity (0.6 nM) [4]: 5.8%
26 | MIU-69: B0, A14-PEG10K di-PEGylated B^1(H5,Y16,L17)25-C^1(K8)-A^1(K14, N18,21) (ligand, disulfide 18-56, 42-47, 6-43) {PEG 10 kDa}-GPEHLCGAELVDALYLVCGDRGFYGYGSSSRKAPQTGIVDECCFRSCDLK(PEG 10 kDa)RLENYCN | – | – | – | – | % Insulin Activity (in vitro; assay not stated) [1]: < 0.1%
